A short description of the data set: yeast display, Sf9 membrane polyspecificity reagent, FACS + sequencing; frameworks hold sequencing errors. The gist of the method:
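Nanobodies came from a synthetic yeast display library in Saccharomyces cerevisiae BJ5465, induced with galactose for 36–48 hours and stained for 1 hour at 4 °C with 10% biotinylated, detergent-solubilized Sf9 membrane reagent. Cells were enriched on streptavidin microbeads and then FACS-sorted, with low and high (top ~1%) gates set on anti-HA fluorescence for expression and streptavidin fluorescence for reagent binding. Each polyreactivity label reflects the gate a clone came from. Genes were amplified by colony PCR, sequenced by MiSeq 2 × 250 and filtered by CDR length.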
With “QVQLVESGGGLVQAGGSLRLSCAASGSIFGPYAMGWYRQAPGKERELVAAITSGGSTYYADSVKGRFTISRDNAKNTVYLQMNSLKPEDTAVYYCNAESYFWDFYDYDHWGQGTQVTLSS”, the “polyreactivity (PSR sort gate)” value is reported as “low polyreactivity”. The value for “QVQLVESGGGLVQAGGSLRLSCAASGSIFGPYAMGWYRQAPGKERELVAAITWSGDSTYYADSVKGRFTISRDNAKNTVYLQMNSLKPEDTAVYYCAAETFIWGQGTQVTVSS” was “low polyreactivity”; that for “QVQLVESGGGLVQAGGSLRLSCAASGSIFGPYVKGWYSQAPGKEREFVAAIRGSGGSTYYADSVKGRFTISRDNAKKTVYLQMNSLKPEDTAVYYCNARLKYTLYYYWGQGTQVTVSS” was “high polyreactivity”; that for “QVQLVESGGGLVQAGGSLRLSCAASGSIFGQNAMGWYRQAPGKEMELVAAIRVSGGSTYYADSVKGRFTNSRDNAKNTVYLQKNSLKPEDTAVYYCNARYRGYYGPKTHGVTYYYWGQGTQVTVSS” was “low polyreactivity”. The value for “QVQLVESGGGLVQAGGSLRLSCAASGSIFGQNAMGWYRQAPGKERELVAAITTSRGSTYYADSVKGRFTISRDNPKNTVDFQMNSLNPEDTAVYYCAARYVTPGYIIYVYWGQGTQVTVSS” was “high polyreactivity”. Under “QVQLVESGGGLVQAGGSLRLSCAASGSIFGQYAMGRYRQAPGKERDLVAAIDWSSASTYYADSVKGRVTISRDNAKNTVYLQMNSLKPEDTAVYDCNAVGKYYRYDYWGQGTQVTVSS” stands “high polyreactivity”; under “QVQLVESGGGLVQAGGSLRLSCAASGSIFGRNAMGWYRQAPGKERELVADIWNGGSTYYADSVKGRFTISRDNAKNTVYLQMNCLKPEDTAVYYCNADANDDGRFGGYIKYDYWGQGTQVTVSS”, “low polyreactivity”; under “QVQLVESGGGLVQAGGSLRLSCAASGSIFGRNAMGWYRQAPGKERELVAGISWSGGSTYYADSVKGRFTISRDNAKNTVYLQMNSLKPEDTAVYYCAADYWTWSGFTYYNYEYWGQGTQVTVSS”, “high polyreactivity”. As for “QVQLVESGGGLVQAGGSLRLSCAASGSIFGRNDMGWYRQAPGKERELVAAISGDTTTNYADSVKGRFTISRDNAKNTVYLQMNSLKPEDTAVYYCNRYSGGRWYPEYYYWGQGTQVTVSS”, the “polyreactivity (PSR sort gate)” value is listed as “high polyreactivity”. The value for “QVQLVESGGGLVQAGGSLRLSCAASGSIFGRYAMGWYRQAPGKERELVAAISYSNARTYYADSVKGRFTISRDNAKNTVYLQMNSLKPEDTAVYYCAVLRRYLVGNLVGYNYWGQGTQVTVSS” was “high polyreactivity”; that for “QVQLVESGGGLVQAGGSLRLSCAASGSIFGRYAMGWYRQAPGKERELVADISWSGGRTYYADSVKGRFTISRDNAKNTVYLQMNSLKPEDTAVYYCNKVYRWFTRFDYWGQGTQLTVSS” was “high polyreactivity”; that for “QVQLVESGGGLVQAGGSLRLSCAASGSIFGRYAMGWYRQAPGKERELVASIYSSGSTYYADSVKGRFTISRDNAKNTVYLQMNSLKPEDTAVYYCAAQISVWGYRVGYTKYYYWGQGTQVTVSS” was “high polyreactivity”. With “QVQLVESGGGLVQAGGSLRLSCAASGSIFGRYGAMGWYRQAPGKERELVAAIRTSGVSTYYADSVKGRFTISRDNAKKNVYLQMNSLKPEDTAVYYCAKGYTSYNLGKYGYWGQGTQVTVSS”, the “polyreactivity (PSR sort gate)” value is “high polyreactivity”.

“QVQLVESGGGLVQAGGSLRLSCAASGSIFGRYPMGWYRQAPGKERELVAAISRRGGSTYYADSVKGRFTISRDNAKNTVYLQMNSLKPEDTAVYYCAARPFVKHDYWGQGTQVTVSS”: the “polyreactivity (PSR sort gate)” value is reported as “high polyreactivity”. The value for “QVQLVESGGGLVQAGGSLRLSCAASGSIFGRYVMGWYRQAPGKERELVAAINWSGSRTYYADSVKGRFTISRDNAKNTVYLQMNSLKPEDTAVYYCAADWWSRYYYWGQGTQVTVSS” was “high polyreactivity”; that for “QVQLVESGGGLVQAGGSLRLSCAASGSIFGRYVMGWYRQAPGKERELVAAITSVGITNYADSVKGRFTISRDNAKNTVYLQMNSLKPEDTAVYYCAKRYYRYGARSWYYPYDYWGQGTQVTVSS” was “high polyreactivity”.

Consider “QVQLVESGGGLVQAGGSLRLSCAASGSIFGSNALGWSRQAPGKERELVAAITWSDGSTYYADSVKGRFTISRDNAKNTVYLQMNSLKPEDTAVYVRATDYGYSWYDYWGQGTQVTVSS”, for which the “polyreactivity (PSR sort gate)” value was “low polyreactivity”.

For “QVQLVESGGGLVQAGGSLRLSCAASGSIFGSNTMGWYRQAPGKEREFVAAISFSGGSTYYADSVKGRFTISRDNAKNTVYLQMNSLKPEDTAVYYCAARQRRVGTSFYSSRRDYWGQGTQVTVSS”, the “polyreactivity (PSR sort gate)” value is reported as “high polyreactivity”.

“QVQLVESGGGLVQAGGSLRLSCAASGSIFGSYAIGWYRHAPGKERELVAAIRYNSGSTYYADSVKGRFTISRDNAKNTVYLQMNSLKPEDTAVYYCAAYLLWGFDYWVQGTQVTVSS”: the “polyreactivity (PSR sort gate)” value is given as “high polyreactivity”. Under “QVQLVESGGGLVQAGGSLRLSCAASGSIFGSYALGWYRQAPGKERELVAAISKSGGNTYYADSVKGRFTISRDNAKNTVYLQMNSLKPEDTAVYYCAARYRFLRPKVNYWGQGTQVTVSS” stands “high polyreactivity”; under “QVQLVESGGGLVQAGGSLRLSCAASGSIFGSYAMGWYRPAPGKERELVAAITRAGSTNYADSVKGRFTISRDNAKNTVYLQMNSLKPEDTAVYYCAVRPGFGRSLWYGYWGQGTQVTVSS”, “low polyreactivity”. Regarding “QVQLVESGGGLVQAGGSLRLSCAASGSIFGSYAMGWYRQAPGKERELVAAISRRGGSTYYADSVKGRFTISRDNAKNTVYLQMNSLKPEDTAVYYCAARWPTGRNGYWGQGTQVTVSS”, the “polyreactivity (PSR sort gate)” value was “high polyreactivity”.

Regarding “QVQLVESGGGLVQAGGSLRLSCAASGSIFGSYAMGWYRQAPGTERELVAAIDWSGVGTYYADSVKGRFTISRDNANNTVYLQMNSLKPEDTAVYYCAAGVLRRDTELYYWGQGTQVTVSS”, the “polyreactivity (PSR sort gate)” value was “low polyreactivity”. Under “QVQLVESGGGLVQAGGSLRLSCAASGSIFGSYTMGWYRPAPGKERELVAAITSGGGNTYYADSVKGRFTISRDNAKNTVYLQMNSLKPEDTAVYYCAARERYTGYGSWGQGTQVTVSS” stands “high polyreactivity”. Under “QVQLVESGGGLVQAGGSLRLSCAASGSIFGTYAKGWYRQAPGKERELVAAISKRGSTTSYADSVKGRFTISRDNAKNTVYLQMNSLKPEDTAVYYCAALTRNSGGYGSWGQGTQVTVSS” stands “high polyreactivity”; under “QVQLVESGGGLVQAGGSLRLSCAASGSIFGTYAMGWYRQAPGKEREFVAAISWSDGSTYYADSVKGRFTISRDNAKNTVYLQMNSLIPEDTAVYYCAVRRVGSIYIDRYIYVVADYDYWGQGTQVTVSS”, “low polyreactivity”; under “QVQLVESGGGLVQAGGSLRLSCAASGSIFGTYAMGWYRQAPGKERELVAAISRGGRTYYADSVKGRFTISRDNAKNTVYLQMNSLKPEDTAVYYCAARTVGLRGYYYWGQGTQVTVSS”, “high polyreactivity”. Under “QVQLVESGGGLVQAGGSLRLSCAASGSIFGTYAMGWYRQAPGKERELVATISYGDGSTYYADSVKGRFTISRDNAKNTVYLQMNSLKPEDTAVYYCNTGVYSSGGPLDYWGQGTQVTVSS” stands “low polyreactivity”.

For the sequence “QVQLVESGGGLVQAGGSLRLSCAASGSIFGVNAMGWYRQAPGKERELVAAISSGGSTNYADSVKGRFTISRDNAKNTVYLQMNSLKPEDTAVSYCNTLWGHQYIGPYRTRECYYWGQGTQVTVSS”, the “polyreactivity (PSR sort gate)” value is recorded as “low polyreactivity”. Under “QVQLVESGGGLVQAGGSLRLSCAASGSIFGVNAMGWYRQAPGKERELVASITGGDSTNYADSVKGRFTISRDNAKNTVYLQMNSLKPEDSAVYYCAKDHYYRYEEGDYWGQGTQVTVSS” stands “low polyreactivity”; under “QVQLVESGGGLVQAGGSLRLSCAASGSIFGVNAMGWYRQAPGKERELVASITGGDSTNYADSVKGRFTISRDNAKNTVYLQMNSLKPEDTAVYYCAKDHYYRYEEGDYWGQGTQVTVSS”, “low polyreactivity”; under “QVQLVESGGGLVQAGGSLRLSCAASGSIFGVNAMGWYRQAPGKERELVATISASGGSTYYADSVKGRFTISRDNAKNTVYLQMNSLKPEDTAVYYCATVVSPSPEMDYWGQGTQVTVSS”, “low polyreactivity”.

On to “QVQLVESGGGLVQAGGSLRLSCAASGSIFGVYAMGWYIPAPGTERELVAAISRGGSTNDADSVKGRFTISRDNEKNTVYLQMNSLKPEDTAVYYCNAVPVLGGYGYQWGYDYWGQGTKVTVSS”, for which the “polyreactivity (PSR sort gate)” value is reported as “low polyreactivity”. As for “QVQLVESGGGLVQAGGSLRLSCAASGSIFGWNAMGWYRQAPGKERELVAAITRRGDSTYYADSVKGRFTISRDNAKNTVYLQMNSLKPEDTAVYYCAKRGTGVYRVDYGYWGQGTQVTVSS”, the “polyreactivity (PSR sort gate)” value is “high polyreactivity”. Under “QVQLVESGGGLVQAGGSLRLSCAASGSIFGWYAMGGYRQAPGKESELVASISVTAGSTYYADSVKWRFTMSRDYAKNTVYLQMNSLKPEDTAVYYCAADDYTADAVQRFYYWGQGTQVTVSS” stands “low polyreactivity”; under “QVQLVESGGGLVQAGGSLRLSCAASGSIFGWYAMGWYRQAPGKEREFVATISRRGGRTYYADSVKGRFTISRDNAKNTVYLQMNSLKPEDTAVYYCAANSVYKEDYWGQGTQVTVSS”, “high polyreactivity”. The value for “QVQLVESGGGLVQAGGSLRLSCAASGSIFGWYAMGWYRQAPGKERELVAAIDSATSTYYADSVKGRFTISRDNAKNTVYLQKNSLKPEDTAVYYCAVYSWWIDAEYDYWGQGSQVTVSS” was “low polyreactivity”; that for “QVQLVESGGGLVQAGGSLRLSCAASGSIFGWYAMGWYRQAPGKERELVAGISWSGANTYYADSVKGRFTISRDNAKNTVYLQMNSLKPEDTAVYYCAAGPGLYYSRRYGYWGQGTQVTVSS” was “high polyreactivity”; that for “QVQLVESGGGLVQAGGSLRLSCAASGSIFGWYAMGWYRQAPGKERELVATISSGGGNTYYADAVKGRFTISRDNAKNTVYLQMNSLKPEDTAVYYCNASPGPDSRLAEFDYWGQGTQVTVSS” was “low polyreactivity”.

Turning to “QVQLVESGGGLVQAGGSLRLSCAASGSIFGWYVMGWYRQAPGKERELVAAISSVGSTYYADSVKGRFTISRDNAKNTVYLQMNSLKPEDTAVYYCAKLRYPYLFWDDSEYWGQCTQVTVSS”, the “polyreactivity (PSR sort gate)” value is given as “low polyreactivity”. The value for “QVQLVESGGGLVQAGGSLRLSCAASGSIFGYNAKGWYRQAPGKERELVAAINYRGGSTYYADSVKGRFTISRDNAKNTVYLQMNSLKPEDTAVYYCAARYWKDGSTYDYWGQGTQVTVSS” was “high polyreactivity”.

The record behind these values is the nanobody polyreactivity screen of Harvey et al. (2022).
